# From patent US20040077031A1, “Novel methionine aminopeptidase-2 and uses thereof” (priority 2002, published 2004)
# Columns and labels:
# Assay in all cases: Kinetic constants of MetAP2 with Mn2+ on peptide substrates (chromogenic assay)
# Assay type in all cases: biochemical, human
# Details in all cases: other: MetAP2 with 100 μM Mn2+; pH 7.4
# [1] = substrate: CSCC[C@H](N)C(=O)NCC(=O)N[C@@H](C)C(=O)N[C@@H](CCC(N)=O)C(=O)N[C@@H](Cc1ccccc1)C(=O)N[C@@H](CO)C(=O)N[C@@H](CCCCN)C(=O)N[C@H](C(=O)O)[C@@H](C)O
# From the text: (§1) A coupled-enzyme chromogenic assay was used to measure methionine aminopeptidase activity by monitoring the production of free methionine cleaved from specific peptide substrates containing methionine. […] Free methionine was oxidized with L-amino acid oxidase (AAO, Sigma Catalog No. A-9378) and horseradish peroxidase (HRP, Sigma Catalog No. P-8451). Oxidation by AAO of free methionine generates hydrogen peroxide (H2O2) which then reacts with HRP oxidizing 0-dianisidine (Sigma Catalog No. D-1954) or 10-acetyl-3,7-dihydrophenoxazine (Amplex Red, Molecular Probes). Assays were performed in 96-well microtiter plates. Enzyme preparations were diluted in assay buffer (50 mM HEPES, pH 7.4, 100 mM NaCl), and 10 μl of the enzymes were introduced into each well. A mixture (90 μl) of 0.1 mg/ml L-amino acid oxidase, 0.1 mg/ml of horseradish peroxidase, 0.1 mg/ml ortho-dianisidine, and 0.5 mM peptide substrate was added to each cell. The reactions were carried out at room temperature, and the absorbance at 450 nanometer (A450) was measured every 20 seconds over a period of twenty minutes using an automatic plate reader (Molecular Devices, Calif., USA). The rate in mOD/min, calculated for each well, was used to represent MetAP1 or MetAP2 activity. Under this assay condition, the methionine cleaved from peptide substrate by MetAP1 or MetAP2 was instantaneously oxidized to generate a final A450 readout. It was determined that 1 μM methionine generated a 2.25 mOD increase in the A450 readout.
# (§2) MetAP2 using Mn^2+ as cofactor was studied to obtain kinetic constants on several peptide substrates. […] Enzyme kinetics was studied using the chromogenic assay to determine enzymatic activity as described in Example 3. […] These peptides were tested at a final concentration of 20, 40, 80, 160, 320, and 640 μM in the assay buffer (50 mM HEPES, pH 7.4, 100 mM NaCl). […] The initial rate of methionine cleavage was determined by measuring the A450 change as described above. Kinetic constants were calculated using Linewaver-Burk plots.
# [2] = substrate: CSCC[C@H](N)C(=O)NCC(=O)N[C@@H](CC(N)=O)C(=O)N[C@@H](C)C(=O)N[C@@H](C)C(=O)N[C@@H](C)C(=O)N[C@@H](C)C(=O)N[C@@H](CCCCN)C(=O)O
# From the text: as §1, §2
# [3] = substrate: CSCC[C@H](N)C(=O)NCC(=O)N[C@@H](CC(N)=O)C(=O)N[C@@H](CC(C)C)C(=O)N[C@@H](CCCCN)C(=O)N[C@@H](CO)C(=O)N[C@H](C(=O)N[C@@H](C)C(=O)O)C(C)C
# From the text: as §1, §2
# [4] = substrate: CSCC[C@H](N)C(=O)NCC(=O)N[C@@H](CCCCN)C(=O)N[C@H](C(=O)N[C@@H](CCCCN)C(=O)N[C@H](C(=O)NCC(=O)N[C@H](C(=O)N[C@@H](CC(N)=O)C(=O)NCC(=O)N[C@@H](Cc1ccccc1)C(=O)O)C(C)C)C(C)C)C(C)C
# From the text: as §1, §2
# [5] = substrate: CSCC[C@H](N)C(=O)NCC(=O)N[C@@H](CCCCN)C(=O)N[C@H](C(=O)N[C@@H](CCCCN)C(=O)N[C@H](C(=O)NCC(=O)N[C@H](C(=O)N[C@@H](CC(N)=O)C(=O)NCC(=O)O)C(C)C)C(C)C)C(C)C
# From the text: as §1, §2
# [6] = substrate: CSCC[C@H](N)C(=O)NCC(=O)N[C@@H](CCCCN)C(=O)N[C@H](C(=O)N[C@@H](CCCCN)C(=O)N[C@H](C(=O)NCC(=O)N[C@H](C(=O)N[C@@H](CC(N)=O)C(=O)O)C(C)C)C(C)C)C(C)C
# From the text: as §1, §2
# [7] = substrate: CSCC[C@H](N)C(=O)NCC(=O)N[C@@H](CCCCN)C(=O)N[C@H](C(=O)N[C@@H](CCCCN)C(=O)N[C@H](C(=O)O)C(C)C)C(C)C
# From the text: as §1, §2
# [8] = substrate: CSCC[C@H](N)C(=O)NCC(=O)N[C@@H](CCCCN)C(=O)N[C@H](C(=O)N[C@@H](CCCCN)C(=O)O)C(C)C
# From the text: as §1, §2
# [9] = substrate: CSCC[C@H](N)C(=O)NCC(=O)N[C@@H](CCCCN)C(=O)N[C@H](C(=O)O)C(C)C
# From the text: as §1, §2
# [10] = substrate: CSCC[C@H](N)C(=O)NCC(=O)N[C@@H](CCCCN)C(=O)O
# From the text: as §1, §2
# [11] = substrate: CSCC[C@H](N)C(=O)NCC(=O)N[C@@H](CO)C(=O)N[C@@H](CO)C(=O)N[C@@H](CCCCN)C(=O)N[C@@H](CO)C(=O)N[C@@H](CCCCN)C(=O)N1CCC[C@H]1C(=O)O
# From the text: as §1, §2
# [12] = substrate: CSCC[C@H](N)C(=O)N[C@@H](C)C(=O)N[C@@H](CO)C(=O)O
# From the text: as §1, §2
protein,measurement,setting,value
"MetAP2 (Homo sapiens) (protein, gp67 secretion signal of vector pAcGP67B (N); made in house; host or cells: baculovirus-infected Sf9 insect cells, secreted into medium) MAGVEEVAASGSHLNGDLDPDDREEGAASTAEEAAKKKRRKKKKSKGPSAAGEQEPDKESGASVDEVARQLERSALEDKERDEDDEDGDGDGDGATGKKKKKKKKKRGPKVQTDPPSVPICDLYPNGVFPKGQECEYPPTQDGRTAAWRTTSEEKKALDQASEEIWNDFREAAEAHRQVRKYVMSWIKPGMTMIEICEKLEDCSRKLIKENGLNAGLAFPTGCSLNNCAAHYTPNAGDTTVLQYDDICKIDFGTHISGRIIDCAFTVTFNPKYDTLLKAVKDATNTGIKCAGIDVRLCDVGEAIQEVMESYEVEIDGKTYQVKPIRNLNGHSIGQYRIHAGKTVPIVKGGEATRMEEGEVYAIETFGSTGKGVVHDDMECSHYMKNFDVGHVPIRLPRTKHLLNVINENFGTLAFCRRWLDRLGESKYLMALKNLCDLGIVDPYPPLCDIKGSYTAQFEHTILLRPTCKEVVSRGDDY",Km,[1],224.4 µM
same,kcat,[1],4.87 s⁻¹
same,kcat/Km,[1],21700 M⁻¹ s⁻¹
same,Km,[2],259.9 µM
same,kcat,[2],3.78 s⁻¹
same,kcat/Km,[2],15000 M⁻¹ s⁻¹
same,Km,[3],208.3 µM
same,kcat,[3],4.87 s⁻¹
same,kcat/Km,[3],23300 M⁻¹ s⁻¹
same,Km,[4],131.3 µM
same,kcat,[4],9.43 s⁻¹
same,kcat/Km,[4],71700 M⁻¹ s⁻¹
same,Km,[5],163.6 µM
same,kcat,[5],10.2 s⁻¹
same,kcat/Km,[5],61700 M⁻¹ s⁻¹
same,Km,[6],205.0 µM
same,kcat,[6],10.2 s⁻¹
same,kcat/Km,[6],50000 M⁻¹ s⁻¹
same,Km,[7],149.3 µM
same,kcat,[7],8.53 s⁻¹
same,kcat/Km,[7],56700 M⁻¹ s⁻¹
same,Km,[8],188.1 µM
same,kcat,[8],10.4 s⁻¹
same,kcat/Km,[8],55000 M⁻¹ s⁻¹
same,Km,[9],623.7 µM
same,kcat,[9],6.7 s⁻¹
same,kcat/Km,[9],10000 M⁻¹ s⁻¹
same,Km,[10],757.6 µM
same,kcat,[10],3.32 s⁻¹
same,kcat/Km,[10],5000 M⁻¹ s⁻¹
same,Km,[11],233.1 µM
same,kcat,[11],3.94 s⁻¹
same,kcat/Km,[11],16700 M⁻¹ s⁻¹
same,Km,[12],211.5 µM
same,kcat,[12],2.54 s⁻¹
same,kcat/Km,[12],12000 M⁻¹ s⁻¹
